Measured values taken from the supplement of paper PMC9732359.
± gives the uncertainty stated by the source.

Assay: protein stability index of a GFP-peptide fusion (yeast GPS) (PSI 1-4); higher = more stable; sorted into four equal gates, so the index is relative within each strain
How it was run: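 Sequencing reads from sorted gates were used to score each peptide. The library consisted of tiled 17-residue yeast protein peptides fused downstream of GFP on a Cherry-expressing plasmid, pooled and carried in yeast. Mid-log cultures in leucine-free medium were split into four equal gates by GFP/Cherry ratio, and each gate's plasmids were PCR-amplified and Illumina-sequenced. The protein stability index adds up, over all gates, the read frequency multiplied by the gate number.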

Sequence | protein stability index (doa10∆) | protein stability index (pdr5∆) | protein stability index (san1∆) | protein stability index (ubr1∆)
SDLKGKLSSAENANADL [YIL149C/MLP2] | 3.37 ± 0.15 | 3.35 ± 0.1 | 3.17 ± 0.12 | 3.17 ± 0.071
SDLNLTDRQKKLLGVDM [YLR018C/POM34] | 3.17 ± 0.052 | 3.09 ± 0.055 | 3.19 ± 0.039 | 3.23 ± 0.039
SDMENDNLLLNLEQINE [REC8] | 2.76 ± 0.056 | 2.75 ± 0.048 | 2.72 ± 0.06 | 2.86 ± 0.048
SDNSVSVRLQVTKILPH [IRR1] | 2.86 ± 0.15 | 2.92 ± 0.12 | 2.74 ± 0.097 | 3.04 ± 0.074
SDREMAALIASKVYYNL [RPN2] | 1.91 ± 0.06 | 1.83 ± 0.056 | 1.5 ± 0.055 | 1.7 ± 0.045
SDSETNHKSKDNNNGDD [SKP1] | 2.9 ± 0.054 | 3.17 ± 0.051 | 3.11 ± 0.04 | 3.15 ± 0.045
SDSIELLKQYPKDSSST [YJR042W/NUP85] | 2.62 ± 0.047 | 2.77 ± 0.051 | 2.61 ± 0.044 | 2.82 ± 0.041
SDSLDIAQGIDLVRDID [SRP72] | 3.29 ± 0.11 | 3.38 ± 0.088 | 3.09 ± 0.077 | 3.26 ± 0.1
SEAEQIDTSKNLENMSI [YCG1] | 3.3 ± 0.073 | 3.28 ± 0.068 | 3.17 ± 0.068 | 2.99 ± 0.069
SEAFPSLQSCSVAVHFQ [SMC4] | 1.77 ± 0.1 | 2.09 ± 0.082 | 2.39 ± 0.095 | 1.79 ± 0.056
SEEKIRDYSKEILGINL [SIR4] | 3.17 ± 0.14 | 3.03 ± 0.083 | 2.88 ± 0.073 | 3.06 ± 0.064
SEETQFKYVEDRFPLKL [ITC1] | 3.47 ± 0.13 | 3.09 ± 0.13 | 3.27 ± 0.09 | 3.01 ± 0.14
SEFLNVPFESLQGVTYP [YIL149C/MLP2] | 2.94 ± 0.086 | 2.56 ± 0.078 | 2.72 ± 0.091 | 2.96 ± 0.063
SEGEQKSAEGNNIDQSL [YAR002W/NUP60] | 2.98 ± 0.063 | 2.94 ± 0.048 | 2.94 ± 0.066 | 3.05 ± 0.065
SEGSGSSLVQKGLETID [RPC53] | 3.35 ± 0.16 | 3.14 ± 0.14 |  | 3.08 ± 0.063
SEGYQKTFSRLDALTRH [RPN4] | 1.17 ± 0.091 | 1.56 ± 0.15 | 1.06 ± 0.24 | 
SEISDGKLKRCSRCGSV [SIN4] | 3.33 ± 0.17 | 3.4 ± 0.14 | 3.36 ± 0.11 | 3.59 ± 0.11
SEVRKAVSIETALEHKV [FAS2] | 1.67 ± 0.12 | 1.4 ± 0.095 | 1.35 ± 0.12 | 1.39 ± 0.051
SFALPFEEDEKNSDVWF [RPN8] | 3.28 ± 0.08 | 3.23 ± 0.072 | 3.14 ± 0.051 | 3.26 ± 0.06
SFCGFLLYYIPSLELSA [YJR042W/NUP85] | 1.65 ± 0.051 | 1.58 ± 0.065 | 1.57 ± 0.1 | 1.95 ± 0.059
SFDAVSDSIELLKQYPK [YJR042W/NUP85] | 2.86 ± 0.083 | 3.16 ± 0.085 | 2.56 ± 0.11 | 2.59 ± 0.087
SFHVQKKTCSSCGYPAA [RPL37A] | 1.85 ± 0.091 | 2.13 ± 0.11 | 1.71 ± 0.16 | 2.06 ± 0.068
SFILSSLEDPQVRKKQI [YDL116W/NUP84] | 1.94 ± 0.11 | 2.09 ± 0.079 | 2.44 ± 0.098 | 3 ± 0.1
SFKIFVDVLVISSHSHP [RRP42] | 1.21 ± 0.043 | 1.21 ± 0.047 | 1.19 ± 0.07 | 1.39 ± 0.032
SFLEKPKFAIQDNHHIT [YMR129W/POM152] | 2.89 ± 0.074 | 2.81 ± 0.081 | 2.81 ± 0.051 | 2.76 ± 0.089
SFLKEGDLLNAEVQSLF [RRP4] | 2.57 ± 0.058 | 3.03 ± 0.091 | 3.04 ± 0.059 | 2.8 ± 0.067

Sequence | protein stability index (doa10∆) | protein stability index (pdr5∆) | protein stability index (san1∆) | protein stability index (ubr1∆)
SFLSKHALYLAPSGIRM [SSN2] | 2.12 ± 0.067 | 1.56 ± 0.059 | 1.46 ± 0.12 | 2.19 ± 0.086
SFNIPRLTFKPWVVYLQ [YMR129W/POM152] | 1.2 ± 0.055 | 1.29 ± 0.055 | 1.09 ± 0.1 | 1.04 ± 0.042
SFQKKSNDKVVEWINPS [ISW2] | 3.12 ± 0.069 | 3.39 ± 0.072 | 3.1 ± 0.12 | 3.19 ± 0.088
SFTNYITRSFKEPRLVI [RPS0A] | 2.74 ± 0.09 | 2.79 ± 0.068 | 2.55 ± 0.068 | 2.83 ± 0.074
SFTSATERHIQVGDGLE [PRE7] | 2.79 ± 0.098 | 2.56 ± 0.075 | 3.35 ± 0.091 | 2.85 ± 0.049
SGCENITDKTIESIVNL [GRR1] | 2.81 ± 0.13 | 2.94 ± 0.099 | 1.54 ± 0.19 | 2.98 ± 0.078
SGEDAEEELWNSPSKGN [YIL149C/MLP2] | 3.15 ± 0.13 | 3.25 ± 0.084 | 3.28 ± 0.058 | 3.21 ± 0.065
SGIRLIEPELFNGYNPE [FAS2] | 2.81 ± 0.067 | 2.89 ± 0.074 | 2.82 ± 0.073 | 2.83 ± 0.045
SGKRKPTKAAQRARDQD [GAL11] |  | 3.65 ± 0.16 | 3.25 ± 0.28 | 3.58 ± 0.15
SGKSNFFAAIRFVLSDD [SMC3] | 3.02 ± 0.11 | 3.36 ± 0.096 | 3.38 ± 0.08 | 3.22 ± 0.052
SGNDSMAGKVLILTSHN [BRR2] | 2.13 ± 0.058 | 2.28 ± 0.072 | 1.63 ± 0.091 | 2.36 ± 0.089
SGRNIHLAVVCVDDNSK [SSN2] | 2.14 ± 0.087 | 1.61 ± 0.045 | 1.48 ± 0.085 | 2.96 ± 0.045
SGTDGSTIGILLLTIQL [SRP72] | 3.09 ± 0.064 | 2.91 ± 0.064 | 3.35 ± 0.054 | 3.15 ± 0.057
SGWTPFHIACSVGNLEV [NAS6] | 1.8 ± 0.095 | 1.89 ± 0.074 | 1.68 ± 0.1 | 1.94 ± 0.11
SHAVEFFMSERSSRLHI [YML103C/NUP188] | 2.5 ± 0.067 | 2.73 ± 0.079 | 2.75 ± 0.087 | 2.4 ± 0.049
SHEERIEAIDEYNKPNS [ISW2] | 2.01 ± 0.063 | 2.12 ± 0.054 | 1.84 ± 0.076 | 2.94 ± 0.039
SIEFAKREKRVFLKHSL [RPN6] | 3.24 ± 0.16 | 3.4 ± 0.17 | 2.87 ± 0.11 | 2.7 ± 0.098
SIEMEEETDDEDKQNIE [RRI2] | 3.25 ± 0.13 | 3.32 ± 0.11 | 3.39 ± 0.062 | 3.19 ± 0.061
SIGASIADLASLEQLLG [YCS4] | 2.84 ± 0.099 | 2.94 ± 0.064 | 2.9 ± 0.076 | 2.92 ± 0.033
SIHAHGSTDVGYYLSLG [PUP1] | 2.62 ± 0.069 | 2.79 ± 0.069 | 2.91 ± 0.065 | 2.24 ± 0.053
SILEHSGIRLIEPELFN [FAS2] | 2.67 ± 0.068 | 2.99 ± 0.061 | 2.76 ± 0.058 | 2.86 ± 0.039
SIMAVTFKDGVILGADS [PRE3] | 1.66 ± 0.1 | 2.61 ± 0.094 | 2.94 ± 0.086 | 2.59 ± 0.14
SIQPIESNIKMTLEDNN [SSN2] | 3.12 ± 0.077 | 3.08 ± 0.075 | 2.81 ± 0.053 | 2.97 ± 0.043
SIVLDSEHFDVNDNPDI [DIS3] | 2.96 ± 0.053 | 3.11 ± 0.053 | 2.74 ± 0.093 | 3.1 ± 0.046
SIWQVKDQLPDLESMGL [MED7] | 2.81 ± 0.11 | 3.04 ± 0.079 | 2.93 ± 0.12 | 3.35 ± 0.097
SKALNSILESSMFLRID [RGR1] | 2.42 ± 0.16 | 2.67 ± 0.11 | 2.08 ± 0.11 | 2.83 ± 0.082
